Ends that are not written are not given here. Peptide text beside a SMILES is read from it.
Columns and labels:
HPVE6 = HPVE6 (Human papillomavirus type 16, UniProt P03126); settings: two-hybrid
Description: (§1) To identify IN-binding peptides, yeast producing HIV integrase was mated with yeast harboring a random peptide library (15 amino acids in length; 27 million diverse) fused to the VP16 activation domain. […] The peptide was cloned as a C-terminal fusion with VP16-Zsgreen and tested for interaction with the GALDB or GALDB-IN fusion in AH109 Mat a, trp1-901, leu2-3, 112, ura3-52, his3-200, gal4 Δ, gal 80Δ, LYS2::GAL1UAS-GAL1TATA-HIS3, GAL2UAS-GAL2TATA-ADE2, URA3:MEL1UAS-MEL1TATA-lacZ. Growth on -ade plates indicated activation of a selectable reporter.

HPVE7 = HPVE7 (Human papillomavirus type 16, UniProt P03129); settings: two-hybrid
Description: as §1

HIV IN [1] = target: T1, HIV IN (Human immunodeficiency virus type 1 group M subtype B, UniProt P12497); assay type: biochemical; settings: summary statement
HIV IN [2] = target: T1, HIV IN; test: yeast two-hybrid screen, growth on -ade plates; assay type: cell-based; parameters: HIV IN was amplified from the pNL4-3 based provirus (R9) as template and cloned into two expression vectors; expressed in transfected cells; host or cells: Saccharomyces cerevisiae AH109; settings: peptide fused to VP16 activation domain, GALDB-IN bait, FIG. 1
Description: A yeast-based screening platform for identifying inhibitors of IN was constructed. In this platform, HIV IN was amplified from the pNL4-3 based provirus (R9) as template and cloned into two expression vectors resulting in a fusion of IN C-terminus to the GAL4 DNA binding domain (GALDB) and the GAL4 activation domain (GALAD) respectively. By western blot analysis, GALAD-IN was detected (not shown); however, GALDB-IN was barely detectable.
Binders were confirmed by plasmid linkage analysis (FIG. 1).

peptide solubility = assay type: physicochemical; settings: effect of C-terminal tail

Chain of HPVE6 (P03126 whole entry, the tested form may be a part): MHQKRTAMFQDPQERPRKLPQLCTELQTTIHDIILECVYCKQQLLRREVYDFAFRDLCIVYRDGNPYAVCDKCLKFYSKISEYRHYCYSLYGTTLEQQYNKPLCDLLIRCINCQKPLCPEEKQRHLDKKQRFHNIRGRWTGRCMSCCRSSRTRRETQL
Chain of HPVE7 (P03129 whole entry): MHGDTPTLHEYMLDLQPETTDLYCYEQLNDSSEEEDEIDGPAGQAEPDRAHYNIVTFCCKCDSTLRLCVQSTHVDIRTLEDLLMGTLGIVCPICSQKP

Molecule	interaction with false bait HPVE6 (HPVE6)	interaction with false bait HPVE7 (HPVE7)	inhibition of integration of viral DNA into target DNA (HIV IN [1])	interaction with HIV IN by two-hybrid (HIV IN [2])	peptide solubility (peptide solubility)
LYETILILLFLDVDTG [SEQ ID NO:1]	not false baits	not false baits	inhibit the integration of viral DNA into the target DNA	interacted with the viral target	
CC[C@H](C)[C@H](NC(=O)[C@H](CC(C)C)NC(=O)[C@@H](NC(=O)[C@@H](NC(=O)[C@H](CCC(=O)O)NC(=O)[C@H](Cc1ccc(O)cc1)NC(=O)[C@@H](N)CC(C)C)[C@@H](C)O)[C@@H](C)CC)C(=O)N[C@@H](CC(C)C)C(=O)N[C@@H](CC(C)C)C(=O)N[C@@H](Cc1ccccc1)C(=O)N[C@@H](CC(C)C)C(=O)N[C@@H](CC(=O)O)C(=O)N[C@H](C(=O)N[C@@H](CC(=O)O)C(=O)N[C@H](C(=O)NCC(=O)N[C@@H](CC(=O)O)C(=O)N[C@@H](CCC(=O)O)C(=O)N[C@@H](CC(=O)O)C(=O)O)[C@@H](C)O)C(C)C [B05759] (H-LYETILILLFLDVDTGDED-OH; N-terminus and C-terminus assumed)					increased peptide solubility
CC[C@H](C)[C@H](NC(=O)[C@H](CC(C)C)NC(=O)[C@@H](NC(=O)[C@@H](NC(=O)[C@H](CCC(=O)O)NC(=O)[C@H](Cc1ccc(O)cc1)NC(=O)[C@@H](N)CC(C)C)[C@@H](C)O)[C@@H](C)CC)C(=O)N[C@@H](CC(C)C)C(=O)N[C@@H](CC(C)C)C(=O)N[C@@H](Cc1ccccc1)C(=O)N[C@@H](CC(C)C)C(=O)N[C@@H](CC(=O)O)C(=O)N[C@H](C(=O)N[C@@H](CC(=O)O)C(=O)N[C@H](C(=O)NCC(=O)N[C@@H](CCCCN)C(=O)N[C@@H](CCCCN)C(=O)N[C@@H](CCCNC(=N)N)C(=O)O)[C@@H](C)O)C(C)C [B05751] (H-LYETILILLFLDVDTGKKR-OH; N-terminus and C-terminus assumed)					increased peptide solubility
